T1: urea-expanded bacteriophage lambda capsid shell (bacteriophage lambda, UniProt P03713 1-341; P03710 23-533)
T1 construct: also called expanded capsid; expanded capsid lattice
T1 sequence 1: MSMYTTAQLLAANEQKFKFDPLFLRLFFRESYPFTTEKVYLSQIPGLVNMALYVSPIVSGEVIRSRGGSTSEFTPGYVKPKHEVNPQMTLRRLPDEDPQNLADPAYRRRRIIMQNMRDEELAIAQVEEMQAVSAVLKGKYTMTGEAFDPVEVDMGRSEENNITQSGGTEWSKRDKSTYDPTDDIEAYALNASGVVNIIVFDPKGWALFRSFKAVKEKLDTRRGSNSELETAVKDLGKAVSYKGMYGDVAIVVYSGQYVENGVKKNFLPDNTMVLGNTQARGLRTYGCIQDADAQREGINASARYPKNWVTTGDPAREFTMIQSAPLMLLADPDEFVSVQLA
T1 sequence 2: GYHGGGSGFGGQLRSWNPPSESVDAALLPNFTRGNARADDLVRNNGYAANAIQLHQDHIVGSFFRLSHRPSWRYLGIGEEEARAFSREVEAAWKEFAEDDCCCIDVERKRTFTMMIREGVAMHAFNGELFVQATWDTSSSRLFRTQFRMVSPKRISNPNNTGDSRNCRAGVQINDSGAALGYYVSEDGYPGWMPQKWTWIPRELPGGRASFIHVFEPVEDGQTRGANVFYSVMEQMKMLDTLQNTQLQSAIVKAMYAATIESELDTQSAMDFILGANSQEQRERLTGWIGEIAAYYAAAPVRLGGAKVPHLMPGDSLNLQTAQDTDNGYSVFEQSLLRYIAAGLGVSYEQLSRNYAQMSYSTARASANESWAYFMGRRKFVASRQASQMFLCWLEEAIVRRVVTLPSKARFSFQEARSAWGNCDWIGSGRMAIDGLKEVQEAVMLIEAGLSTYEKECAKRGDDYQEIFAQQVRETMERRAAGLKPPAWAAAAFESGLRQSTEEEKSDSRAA


Legend:
[1] = biological target: T1, urea-expanded bacteriophage lambda …; experiment: SDS-PAGE of capsids decorated with gpD-WT alone and separated from unreacted protein
Concanavalin A = biological target: T2, Concanavalin A (UniProt P02866 30-281); experiment: agglutination assay (absorbance at 350 nm) of decorated capsids with Concanavalin A
T2 construct: Used at 1 uM in the agglutination assay; It recognises the mannose conjugated to gpD(S42C); also called Con A; ConA

[2] = biological target: T1, urea-expanded bacteriophage lambda …; experiment: in vitro capsid decoration, SDS-PAGE of isolated decorated capsids

Binder	ratio of major capsid protein (gpE) to gpD-WT in the decorated particles [1]	binding result (Concanavalin A)	Surface Density (% relative to gpD) [2]
wild-type bacteriophage lambda gpD decoration protein (other, Monomer in solution; adds to the expanded capsid as trimer spikes at the 140 three-fold axes (420 copies per shell); also called gpD-WT; gpD-wt) MTSKETFTHYQPQGNSDPAHTATAPGGLSAKAPAMTPLMLDTSSRKLVAWDGTTDGAAVGILAVAADQTSTTLTFYKSGTFRYEDVLWPEAASDETKKRTAFAGTAISIV	~1 ratio gpE:gpD-WT	no binding (tested: 1 µM ConA, 1 µM gpD equivalent)	100 % relative to gpD
gpD(S42C) (other) MTSKETFTHYQPQGNSDPAHTATAPGGLSAKAPAMTPLMLDTCSRKLVAWDGTTDGAAVGILAVAADQTSTTLTFYKSGTFRYEDVLWPEAASDETKKRTAFAGTAISIV		no binding (tested: 1 µM ConA, 1 µM gpD equivalent)	90 % relative to gpD
gpD(S42C::sMannose) (other, 6'-maleimidohexanamido-polyethyleneglycol mannoside (sMannose) on Cys42 (numbering without the N-terminal methionine), The presence of the H6 tag is therefore not certain; also called gpD-mannose; gpD glycoprotein) HHHHHHMTSKETFTHYQPQGNSDPAHTATAPGGLSAKAPAMTPLMLDTCSRKLVAWDGTTDGAAVGILAVAADQTSTTLTFYKSGTFRYEDVLWPEAASDETKKRTAFAGTAISIV			82 % relative to gpD
H6-gpD-GFP (other, HIS-tagged fusion of an N-terminal gpD domain and a C-terminal GFP domain; also called gpD-Green Fluorescent Protein; GFP-tagged gpD) HHHHHHMTSKETFTHYQPQGNSDPAHTATAPGGLSAKAPAMTPLMLDTSSRKLVAWDGTTDGAAVGILAVAADQTSTTLTFYKSGTFRYEDVLWPEAASDETKKRTAFAGTAISIV			77 % relative to gpD

From US20180057542A1 (University of Washington, published 2018)
